Usually Kd stands for the constant that tells how readily two partners part at equilibrium.

These results are taken from patent EP1616575B1 (ZymoGenetics, Inc., dated 2012).

In assay [1] the target is T1, IL-20RA/IL-20RB heterodimeric receptor (human, UniProt Q9UHF4 30-553; Q6UXL0 30-311).
T1 construct: Both subunits co-expressed on cells: transfected COS, BHK and BaF3 cells, and endogenous on HaCaT keratinocytes; also called IL-20 receptor; IL-20RB-IL-20RA heterodimer
T1 sequence 1: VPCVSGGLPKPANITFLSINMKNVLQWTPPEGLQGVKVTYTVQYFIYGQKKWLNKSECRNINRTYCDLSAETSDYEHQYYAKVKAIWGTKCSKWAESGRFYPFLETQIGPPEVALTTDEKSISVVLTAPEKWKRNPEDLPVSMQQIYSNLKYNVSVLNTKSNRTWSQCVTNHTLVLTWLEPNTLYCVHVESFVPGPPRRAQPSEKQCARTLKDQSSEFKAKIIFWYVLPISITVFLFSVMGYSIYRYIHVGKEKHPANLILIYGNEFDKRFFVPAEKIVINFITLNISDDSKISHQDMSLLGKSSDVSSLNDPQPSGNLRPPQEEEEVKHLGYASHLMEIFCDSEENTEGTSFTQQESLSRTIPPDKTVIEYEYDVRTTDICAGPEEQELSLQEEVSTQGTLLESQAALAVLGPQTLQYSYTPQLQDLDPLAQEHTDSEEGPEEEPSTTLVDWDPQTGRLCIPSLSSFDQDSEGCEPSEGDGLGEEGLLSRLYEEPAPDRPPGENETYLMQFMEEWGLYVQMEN
T1 sequence 2: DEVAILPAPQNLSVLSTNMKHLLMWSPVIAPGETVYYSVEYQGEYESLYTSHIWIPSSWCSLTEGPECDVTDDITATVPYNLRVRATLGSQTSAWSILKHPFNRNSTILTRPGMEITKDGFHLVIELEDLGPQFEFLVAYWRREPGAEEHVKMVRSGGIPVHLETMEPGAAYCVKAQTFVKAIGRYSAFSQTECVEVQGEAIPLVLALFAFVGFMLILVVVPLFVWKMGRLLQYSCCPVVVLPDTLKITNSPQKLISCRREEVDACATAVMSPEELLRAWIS
The assay is described as follows: 125I-IL-20 binding to BHK cells stably transfected with IL-20RA and IL-20RB.

In another assay the target is T2, IL-20RA (human, UniProt Q9UHF4 30-553).
T2 construct: Expressed alone on stably transfected BHK cells; also called Zcytor7; IL-20RA receptor subunit alone
T2 sequence: T1 sequence 1
The assay is described as follows: radiolabeled IL-20 binding to BHK cells stably transfected with IL-20RA alone.

The target in the next assay is T3, IL-20RB (human, UniProt Q6UXL0 30-311).
T3 construct: Expressed alone on stably transfected BHK cells; also called IL-20RB receptor subunit alone
T3 sequence: T1 sequence 2
The assay is described as follows: radiolabeled IL-20 binding to BHK cells stably transfected with IL-20RB alone.

B1: IL-20 (ligand, UniProt Q9NYY1 25-176, looked up)
chain: LKTLNLGSCVIATNLQEIRNGFSEIRGSVQAKDGNIDIRILRRTESLQDTKPANRCCLLRHLLRLYLDRVFKNYQTPDHYTLRKISSLANSFLTIKKDLRLCHAHMTCHCGEEAMKKYSQILSHFEKLEPQAAVVKALGELDILLQWMEETE
notes: also called Zcyto10; biotin-labeled IL-20 protein
With B1, the equilibrium dissociation constant (Kd) in assay [1] was approximately 1.5 nM. The binding result with IL-20RA and in the assay with IL-20RB was “no binding” throughout.
